According to US20020102709A1:

Tests used:
[1] = target: bovine serum albumin (BSA, Sigma) (bovine) (UniProt P02769); assay: ELISA, serum albumin coated, 0.1 µg/ml FNCBD-FGF, detection with anti-FNCBD monoclonal antibody
[2] = target: bovine serum albumin (BSA, Sigma) (bovine) (UniProt P02769); assay: ELISA, serum albumin coated, FNCBD-EGF (concentration not given), detection with anti-FNCBD monoclonal antibody

Chain of UniProt P02769 (P02769 25-607 limits assumed): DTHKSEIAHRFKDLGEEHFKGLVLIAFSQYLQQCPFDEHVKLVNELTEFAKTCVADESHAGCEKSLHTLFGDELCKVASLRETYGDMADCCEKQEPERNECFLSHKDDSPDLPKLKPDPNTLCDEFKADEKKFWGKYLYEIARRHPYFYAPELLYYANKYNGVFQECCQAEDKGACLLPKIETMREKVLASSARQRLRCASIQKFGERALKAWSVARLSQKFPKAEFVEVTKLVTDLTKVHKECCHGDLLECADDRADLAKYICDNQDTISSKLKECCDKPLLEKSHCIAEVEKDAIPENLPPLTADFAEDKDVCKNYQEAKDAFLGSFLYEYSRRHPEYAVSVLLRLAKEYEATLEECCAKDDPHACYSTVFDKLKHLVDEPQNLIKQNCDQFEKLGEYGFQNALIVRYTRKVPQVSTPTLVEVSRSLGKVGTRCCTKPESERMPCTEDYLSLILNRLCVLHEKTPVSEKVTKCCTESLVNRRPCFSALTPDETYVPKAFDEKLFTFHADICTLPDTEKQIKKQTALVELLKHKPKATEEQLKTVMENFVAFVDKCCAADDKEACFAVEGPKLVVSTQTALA

| absorption at 492 nm (absorption (492 nm)) [1] | absorption at 492 nm (absorption (492 nm)) [2] | Substance |
| --- | --- | --- |
| 0.27 |  | human FNCBD/human bFGF hybrid polypeptide (FNCBD-FGF) |
|  | 0.11 | human FNCBD/human EGF hybrid polypeptide (FNCBD-EGF) |
